How the values were obtained:
[1] = target: T1, recombinant human CSF1 protein (human) (UniProt P09603); experiment: SPR, BioRad ProteOn XPR 360
T1 sequence (looked up): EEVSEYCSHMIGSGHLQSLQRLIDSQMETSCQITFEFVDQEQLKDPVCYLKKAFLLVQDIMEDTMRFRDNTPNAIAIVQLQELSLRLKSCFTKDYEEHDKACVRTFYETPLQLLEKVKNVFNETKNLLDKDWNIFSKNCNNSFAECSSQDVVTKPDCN

[2] = target: T2, murine CD40 overexpressed on CHO-K1 cells (CHOK1/CD40) (murine, UniProt P27512 20-289); experiment: flow cytometry on CHOK1/CD40 cells
T2 construct: whole, on cells; also called mCD40
T2 sequence (looked up): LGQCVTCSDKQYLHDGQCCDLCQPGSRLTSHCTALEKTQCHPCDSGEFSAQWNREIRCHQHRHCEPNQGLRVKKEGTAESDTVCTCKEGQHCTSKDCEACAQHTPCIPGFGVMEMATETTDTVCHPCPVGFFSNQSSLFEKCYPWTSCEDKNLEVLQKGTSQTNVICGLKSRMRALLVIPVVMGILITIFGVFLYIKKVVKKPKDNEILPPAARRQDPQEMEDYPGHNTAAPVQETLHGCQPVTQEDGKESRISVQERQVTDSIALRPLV
Procedure: For cell binding assays, immortalized cell lines were engineered to stably express CD40 (CHOK1/CD40). Increasing concentrations of the murine CSF1R-Fc-CD40L chimeric protein were incubated with the over-expressing (CHOK1/CD40) cell line for 2 hours. Cells were collected, washed, and stained with antibodies for the detection of chimeric protein binding by flow cytometry.
As a negative control, there was no detectable binding to the parental (non-CD40 expressing) CHOK1 cell line.

CSF1R-Fc (Fc fusion)
Kd [1]: 0.275 nM | koff [1]: 0.000335 s⁻¹ | kon [1]: 1.22e+06 M⁻¹ s⁻¹

B1: murine CSF1R-Fc-CD40L chimeric protein (Fc fusion, UniProt P09581 20-515, looked up)
chain: APVIEPSGPELVVEPGETVTLRCVSNGSVEWDGPISPYWTLDPESPGSTLTTRNATFKNTGTYRCTELEDPMAGSTTIHLYVKDPAHSWNLLAQEVTVVEGQEAVLPCLITDPALKDSVSLMREGGRQVLRKTVYFFSPWRGFIIRKAKVLDSNTYVCKTMVNGRESTSTGIWLKVNRVHPEPPQIKLEPSKLVRIRGEAAQIVCSATNAEVGFNVILKRGDTKLEIPLNSDFQDNYYKKVRALSLNAVDFQDAGIYSCVASNDVGTRTATMNFQVVESAYLNLTSEQSLLQEVSVGDSLILTVHADAYPSIQHYNWTYLGPFFEDQRKLEFITQRAIYRYTFKLFLNRVKASEAGQYFLMAQNKAGWNNLTFELTLRYPPEVSVTWMPVNGSDVLFCDVSGYPQPSVTWMECRGHTDRCDEAQALQVWNDTHPEVLSQKPFDKVIIQSQLPIGTLKHNMTYFCKTHNSVGNSSQYFRAVSLGQSKQLPDESLFTPHRRLDKVEEEVNLHEDFVFIKKLKRCNKGEGSLSLLNCEEMRRQFEDLVKDITLNKEEKKENSFEMQRGDEDPQIAAHVVSEANSNAASVLQWAKKGYYTMKSNLVMLENGKQLTVKREGLYYVYTQVTFCSNREPSSQRPFIVGLWLKPSSGSERILLKAANTHSSSQLCEQQSVHLGGVFELQAGASVFVNVTEASQVIHRVGFSSFGLLKL
notes: constructed 'as described above in the Detailed Description and in U.S. 62/464,002'; also called mCSF1R-Fc-CD40L; mCD115-Fc-CD40L; not shown: Fc linker of the murine chimera
EC50 [2]: 91.1 nM

Source: US20200123214A1 (published 2020)
